B1: Beclin-2 (Homo sapiens), A8MW95 (parent)
chain: MSSIRFLCQRCHQALKLSGSSESRSLPAAPAPTSGQAEPGDTREPGVTTREVTDAEEQQDGASSRSPPGDGSVSKGHANIFTLLGELGAMHMLSSIQKAAGDIFDIVSGQAVVDHPLCEECTDSLLEQLDIQLALTEADSQNYQRCLETGELATSEDEAAALRAELRDLELEEARLVQELEDVDRNNARAAADLQAAQAEAAELDQQERQHYRDYSALKRQQLELLDQLGNVENQLQYARVQRDRLKEINCFTATFEIWVEGPLGVINNFRLGRLPTVRVGWNEINTAWGQAALLLLTLANTIGLQFQRYRLIPCGNHSYLKSLTDDRTELPLFCYGGQDVFLNNKYDRAMVAFLDCMQQFKEEAEKGELGLSLPYGIQVETGLMEDVGGRGECYSIRTHLNTQELWTKALKFMLINFKWSLIWVASRYQK
partner: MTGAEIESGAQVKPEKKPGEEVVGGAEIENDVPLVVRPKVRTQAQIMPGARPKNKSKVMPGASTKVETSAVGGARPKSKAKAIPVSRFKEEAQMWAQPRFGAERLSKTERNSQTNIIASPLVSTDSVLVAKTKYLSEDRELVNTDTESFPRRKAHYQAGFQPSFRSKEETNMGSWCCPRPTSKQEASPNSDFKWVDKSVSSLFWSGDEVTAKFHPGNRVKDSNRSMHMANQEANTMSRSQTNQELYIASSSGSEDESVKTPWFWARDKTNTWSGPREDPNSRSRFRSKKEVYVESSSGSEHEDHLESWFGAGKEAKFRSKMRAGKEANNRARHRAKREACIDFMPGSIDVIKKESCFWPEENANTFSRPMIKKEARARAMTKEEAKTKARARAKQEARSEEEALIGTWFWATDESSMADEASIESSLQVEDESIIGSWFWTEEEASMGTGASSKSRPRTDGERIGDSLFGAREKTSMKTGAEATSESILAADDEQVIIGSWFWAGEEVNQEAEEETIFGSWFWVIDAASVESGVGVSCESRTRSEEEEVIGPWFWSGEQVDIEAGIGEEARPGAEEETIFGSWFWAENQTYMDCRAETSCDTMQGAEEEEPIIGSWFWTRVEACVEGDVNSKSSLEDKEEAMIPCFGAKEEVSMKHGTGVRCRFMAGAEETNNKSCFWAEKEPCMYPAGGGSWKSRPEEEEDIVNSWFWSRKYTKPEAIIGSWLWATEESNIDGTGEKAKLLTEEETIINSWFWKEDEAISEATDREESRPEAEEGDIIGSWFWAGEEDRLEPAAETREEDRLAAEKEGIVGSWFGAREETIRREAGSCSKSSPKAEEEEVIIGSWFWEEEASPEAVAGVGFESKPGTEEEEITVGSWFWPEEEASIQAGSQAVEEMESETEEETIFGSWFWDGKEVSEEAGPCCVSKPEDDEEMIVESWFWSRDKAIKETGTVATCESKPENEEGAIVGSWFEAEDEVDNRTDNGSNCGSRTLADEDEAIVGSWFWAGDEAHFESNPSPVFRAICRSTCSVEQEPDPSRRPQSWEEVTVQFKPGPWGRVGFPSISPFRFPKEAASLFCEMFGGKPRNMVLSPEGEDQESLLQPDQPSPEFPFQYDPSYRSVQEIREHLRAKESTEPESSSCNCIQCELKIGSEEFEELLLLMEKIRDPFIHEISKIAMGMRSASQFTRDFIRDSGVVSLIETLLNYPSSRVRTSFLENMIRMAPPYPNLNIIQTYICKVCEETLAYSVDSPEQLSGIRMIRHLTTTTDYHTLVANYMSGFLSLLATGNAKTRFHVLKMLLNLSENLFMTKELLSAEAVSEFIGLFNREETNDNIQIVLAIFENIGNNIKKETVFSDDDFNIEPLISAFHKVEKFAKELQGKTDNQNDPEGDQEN

Variants of: B1
Conditions: with gasp1_human GPRASP1, Q5JY77

**Q.** Which “effect of a mutation on the interaction” value does the source give for I80S here?
**A.** The value was “disrupting interaction strength”.
